# T1: TOP-2 [R828C]::3xFLAG, Q23670
# T1 chain: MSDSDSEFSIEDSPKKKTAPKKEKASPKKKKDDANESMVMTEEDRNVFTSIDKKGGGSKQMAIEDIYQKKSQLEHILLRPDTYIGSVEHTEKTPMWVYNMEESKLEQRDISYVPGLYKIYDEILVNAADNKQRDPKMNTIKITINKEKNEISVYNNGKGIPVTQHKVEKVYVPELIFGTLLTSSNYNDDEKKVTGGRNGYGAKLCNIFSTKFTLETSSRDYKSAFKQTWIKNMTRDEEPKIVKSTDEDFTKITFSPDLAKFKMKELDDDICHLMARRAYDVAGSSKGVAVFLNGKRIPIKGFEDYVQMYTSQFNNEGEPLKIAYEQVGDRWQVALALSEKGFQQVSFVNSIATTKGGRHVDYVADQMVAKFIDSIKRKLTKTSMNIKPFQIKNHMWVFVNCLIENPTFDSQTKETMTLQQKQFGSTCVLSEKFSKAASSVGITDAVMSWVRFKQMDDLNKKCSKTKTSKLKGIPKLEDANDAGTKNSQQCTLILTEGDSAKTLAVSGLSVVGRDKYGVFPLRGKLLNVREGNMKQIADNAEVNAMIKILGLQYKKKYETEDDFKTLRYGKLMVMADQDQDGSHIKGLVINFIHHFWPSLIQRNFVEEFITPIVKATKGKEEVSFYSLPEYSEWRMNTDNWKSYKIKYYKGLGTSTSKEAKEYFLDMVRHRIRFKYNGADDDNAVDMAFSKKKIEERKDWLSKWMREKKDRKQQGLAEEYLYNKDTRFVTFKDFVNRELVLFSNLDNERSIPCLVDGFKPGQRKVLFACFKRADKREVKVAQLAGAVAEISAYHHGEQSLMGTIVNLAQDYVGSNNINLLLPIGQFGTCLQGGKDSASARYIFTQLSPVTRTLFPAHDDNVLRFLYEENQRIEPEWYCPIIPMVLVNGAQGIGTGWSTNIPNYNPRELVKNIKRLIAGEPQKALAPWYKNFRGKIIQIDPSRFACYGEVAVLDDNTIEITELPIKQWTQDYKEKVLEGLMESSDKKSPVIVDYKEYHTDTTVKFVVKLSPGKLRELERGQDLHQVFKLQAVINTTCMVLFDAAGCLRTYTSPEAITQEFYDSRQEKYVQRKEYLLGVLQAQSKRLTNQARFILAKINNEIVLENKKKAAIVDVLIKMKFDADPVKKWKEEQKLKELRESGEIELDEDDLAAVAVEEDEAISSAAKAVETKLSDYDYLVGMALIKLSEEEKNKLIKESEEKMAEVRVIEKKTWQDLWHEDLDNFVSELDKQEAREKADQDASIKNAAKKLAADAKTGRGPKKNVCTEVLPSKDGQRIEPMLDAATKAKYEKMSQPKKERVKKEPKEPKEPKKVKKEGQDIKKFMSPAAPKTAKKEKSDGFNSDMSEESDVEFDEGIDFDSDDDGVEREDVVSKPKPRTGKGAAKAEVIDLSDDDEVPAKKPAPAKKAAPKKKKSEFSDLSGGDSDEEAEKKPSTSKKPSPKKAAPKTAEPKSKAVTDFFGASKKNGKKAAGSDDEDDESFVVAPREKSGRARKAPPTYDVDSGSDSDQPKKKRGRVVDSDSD
# Target: T1, TOP-2 [R828C]::3xFLAG, Q23670
# Assay: co-immunoprecipitation (anti-FLAG magnetic agarose beads) with anti-RFP immunoblot, band quantification
# Details: chain shown with the change;; parent: est. 1.0; read off a plot
binder,measurement,value
m1; m2 TDPT-1:G117R; TOP-2:R828C (protein) MSNSDDEIQEIEAKRQKMSQEDSEVEIEILDEPEQGKLKNSSMSDEQKLHEFAIITATDEAFAQSILQDVDWDLKKALDVFYGSEAFAEARSAAVMGASSSMASSGAAVMTAEDLKRFEVSVMSWNIDGLDGRSLLTRMKAVAHIVKNVNPDILFLQEVVDRDLAPIDKLQSLYKIYYSNKGCQYYTAILVSKMFDVEKHDVIHFQNSGMYRTLQILEGSIGGLKVFLLNTHLESTREHRPQRCAQFGFCMDKVREIIAQNPGALVFFGGDLNLRDEEVSRVPDGVKDAWEAAGSDNKTKFTWDTFKNDNKQGFHGAKMRFDRLYWSGPLDKVKFTLEGRQRIRSCLCFPSDHWAINATFFA,ratio to parent,0.33

# Source: publication PMC11261448
